Test results reported in patent US20130280279A1, “PHARMACEUTICAL COMPOSITION OF A COMPLEX OF AN ANTI-DIG ANTIBODY AND DIGOXIGENIN THAT IS CONJUGATED TO A PEPTIDE” (HOFFMANN-LA ROCHE INC., priority 2011, published 2013).

Experiments:
[1] = target: digoxigenated nucleic acids (siRNA-Dig); experiment: SPR (Biacore) binding to digoxigenated nucleic acids; conditions: 25° C., read-out: Kd towards digoxigenated nucleic acids (siRNA-Dig)
Method: For that, binding properties of the recombinant <Dig> derivatives were analyzed by surface plasmon resonance (SPR) technology using a Biacore T100 or Biacore 3000 instrument (GE Healthcare Bio-Sciences AB, Uppsala). This system is well established for the study of molecule interactions. It allows a continuous real-time monitoring of ligand/analyte bindings and thus the determination of association rate constants (ka), dissociation rate constants (kd), and equilibrium constants (KD) in various assay settings. SPR-technology is based on the measurement of the refractive index close to the surface of a gold coated biosensor chip. Changes in the refractive index indicate mass changes on the surface caused by the interaction of immobilized ligand with analyte injected in solution. […]
Anti-mouse IgG antibody was immobilized on the surface of a CM5 biosensor chip in the same fashion as described above. […] The samples to be analyzed were diluted in HBS-P (10 mM HEPES, pH 7.4, 150 mM NaCl, 0.005% Surfactant P20) and injected at a flow rate of 5 μl/min. […] Signals were detected at a rate of one signal per second. […]
Anti-mouse and anti-human IgG antibodies were immobilized on the surface of a CM5 biosensor chip in the same fashion as described above. The samples to be analyzed were diluted in HBS-P and injected at a flow rate of 5 μl/min. […]

DIG-myoglobin = experiment: SPR binding to mono-digoxigenated protein DIG-myoglobin
Method: Further SPR studies were performed in which the binding affinity of the humanized <DIG>-IgG, IGF1R-DIG and the murine <DIG>M-19-11 was compared in binding to a mono-digoxigenated protein DIG-myoglobin.

B1: murine DIG-IgG 19-11: monoclonal murine <Dig> IgG1 kappa antibody from hybridoma clone 19-11 (antibody, V domains shown)
VH: EVQLVESGGGLVKPGGSLKLSCAVSGFTFSDYAMSWIRQTPENRLEWVASINIGATYAYYPDSVKGRFTISRDNAKNTLFLQMSSLGSEDTAMYYCARPGSPYEYDKAYYSMAYWGPGTSVTVSS
VL: DVQMTQSTSSLSASLGDRVTISCRASQDIKNYLNWYQQKPGGTVKLLIYYSSTLLSGVPSRFSGRGSGTDFSLTITNLEREDIATYFCQQSITLPPTFGGGTKLEIK
B1 was tested, and the Kd [1] was 0.269 nM and the “affinity to DIG-Myo compared with the humanized derivatives” value (DIG-myoglobin) was “clearly better”.

B2: humanized DIG-IgG: humanized IgG with the binding specificity of murine <Dig> 19-11 (antibody, V domains shown)
VH: QVQLVESGGGLVKPGGSLRLSCAASGFTFSDYAMSWIRQAPGKGLEWVSSINIGATYIYYADSVKGRFTISRDNAKNSLYLQMNSLRAEDTAVYYCARPGSPYEYDKAYYSMAYWGQGTTVTVSS
VL: DIQMTQSPSSLSASVGDRVTITCRASQDIKNYLNWYQQKPGKAPKLLIYYSSTLLSGVPSRFSGSGSGTDFTLTISSLQPEDFATYYCQQSITLPPTFGGGTKVEIKR
For B2, the Kd [1] was 12 nM.
